B1: SLC19A2 (parent)
chain: IYPVWTYSYLVLLFPVFLATDYLR

Variants of: B1
Experiment: protein stability index of a GFP-peptide fusion (GPS, HEK-293T) (PSI 1-6); higher = more stable
Conditions: c terminus: a fixed tail appended
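Also: lentivirally expressed fusions sorted by FACS into six bins by GFP to DsRed ratio, PSI derived from sequencing read proportions per bin multiplied by bin number.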

Row | Variant | protein stability index
1 | IYPVWTYSYLVLLFPVFLALDYLR | 4.02
2 | IYPVWTYSYLVLLFPVFLAYDYLR | 1.95
3 | IYPVWTYSYLVLLFPVFLAEDYLR | 1.62
4 | IYPVWTYSYLVLLFPVFLAWDYLR | 1.93
5 | IYPVWTYSYLVLLFPVFLAADYLR | 2.94
6 | IYPVWTYSYLVLLFPVFLAIDYLR | 4.41
7 | IYPVWTYSYLVLLFPVFLAFDYLR | 2.44
8 | IYPVWTYSYLVLLFPVFLAPDYLR | 3.55
9 | IYPVWTYSYLVLLFPVFLAQDYLR | 3.01
10 | IYPVWTYSYLVLLFPVFLACDYLR | 2.53
11 | IYPVWTYSYLVLLFPVFLASDYLR | 2.33
12 | IYPVWTYSYLVLLYPVFLATDYLR | 2.88
13 | IYPVWTYSYLVLLWPVFLATDYLR | 2.47
14 | IYPVWTYSYLVLLVPVFLATDYLR | 2.97
15 | IYPVWTYSYLVLLFFVFLATDYLR | 2.95
16 | IYPVWTYSYLVLLFCVFLATDYLR | 3.79
17 | IYPVWTYSYLVLLFHVFLATDYLR | 2.75
18 | IYPVWTYSYLVLLFSVFLATDYLR | 2.5
19 | IYPVWTYSYLVLLFWVFLATDYLR | 3.27
20 | IYPVWTYSYLVLLFAVFLATDYLR | 3.53
21 | IYPVWTYSYLVLLFMVFLATDYLR | 3.22
22 | IYPVWTYSYLVLLFRVFLATDYLR | 2.7
23 | IYPVWTYSYLVLLFGVFLATDYLR | 1.93
24 | IYPVWTYSYLVLLFYVFLATDYLR | 1.06

Row | Variant | protein stability index
25 | IYPVWTYSYLVLLFLVFLATDYLR | 2.41
26 | IYPVWTYSYLVLLFEVFLATDYLR | 3.03
27 | IYPVWTYSYLVLLFQVFLATDYLR | 3.38
28 | IYPVWTYSYLVLLFNVFLATDYLR | 2.11
29 | IYPVWTYSYLVLLFPDFLATDYLR | 4.04
30 | IYPVWTYSYLVLLFPFFLATDYLR | 3.04
31 | IYPVWTYSYLVLLFPEFLATDYLR | 1.72
32 | IYPVWTYSYLVLLFPKFLATDYLR | 1.95
33 | IYPVWTYSYLVLLFPRFLATDYLR | 3.91
34 | IYPVWTYSYLVLLFPSFLATDYLR | 3.4
35 | IYPVWTYSYLVLLFPTFLATDYLR | 2.15
36 | IYPVWTYSYLVLLFPAFLATDYLR | 3.1
37 | IYPVWTYSYLVLLFPHFLATDYLR | 4.12
38 | IYPVWTYSYLVLLFPCFLATDYLR | 2.79
39 | IYPVWTYSYLVLLFPMFLATDYLR | 2.55
40 | IYPVWTYSYLVLLFPLFLATDYLR | 2.41
41 | IYPVWTYSYLVLLFPNFLATDYLR | 2.79
42 | IYPVWTYSYLVLLFPIFLATDYLR | 3.52
43 | IYPVWTYSYLVLLFPYFLATDYLR | 2.34
44 | IYPVWTYSYLVLLFPPFLATDYLR | 2.42
45 | IYPVWTYSYLVLLFPQFLATDYLR | 3.85
46 | IYPVWTYSYLVLLFPVGLATDYLR | 2.81
47 | IYPVWTYSYLVLLFPVSLATDYLR | 2.64
48 | IYPVWTYSYLVLLFPVMLATDYLR | 3.21

Row | Variant | protein stability index
49 | IYPVWTYSYLVLLFPVELATDYLR | 3.22
50 | IYPVWTYSYLVLLFPVKLATDYLR | 3.78
51 | IYPVWTYSYLVLLFPVRLATDYLR | 2.95
52 | IYPVWTYSYLVLLFPVCLATDYLR | 2.97
53 | IYPVWTYSYLVLLFPVWLATDYLR | 2.19
54 | IYPVWTYSYLVLLFPVNLATDYLR | 3.6
55 | IYPVWTYSYLVLLFPVYLATDYLR | 2.43
56 | IYPVWTYSYLVLLFPVTLATDYLR | 2.95
57 | IYPVWTYSYLVLLFPVPLATDYLR | 4.41
58 | IYPVWTYSYLVLLFPVALATDYLR | 3.59
59 | IYPVWTYSYLVLLFPVHLATDYLR | 3.74
60 | IYPVWTYSYLVLLFPVDLATDYLR | 2.99
61 | IYPVWTYSYLVLLFPVFCATDYLR | 3.04
62 | IYPVWTYSYLVLLFPVFMATDYLR | 3.69
63 | IYPVWTYSYLVLLFPVFIATDYLR | 3.03
64 | IYPVWTYSYLVLLFPVFFATDYLR | 2.3
65 | IYPVWTYSYLVLLFPVFTATDYLR | 2.54
66 | IYPVWTYSYLVLLFPVFRATDYLR | 4.66
67 | IYPVWTYSYLVLLFPVFHATDYLR | 3.99
68 | IYPVWTYSYLVLLFPVFAATDYLR | 2.5
69 | IYPVWTYSYLVLLFPVFNATDYLR | 2.84
70 | IYPVWTYSYLVLLFPVFQATDYLR | 2.84
71 | IYPVWTYSYLVLLFPVFPATDYLR | 3.1
72 | IYPVWTYSYLVLLFPVFEATDYLR | 3.06

Row | Variant | protein stability index
73 | IYPVWTYSYLVLLFPVFYATDYLR | 2.32
74 | IYPVWTYSYLVLLFPVFDATDYLR | 2.81
75 | IYPVWTYSYLVLLFPVFSATDYLR | 3.42
76 | IYPVWTYSYLVLLFPVFGATDYLR | 3.7
77 | IYPVWTYSYLVLLFPVFKATDYLR | 2.51
78 | IYPVWTYSYLVLLFPVFLTTDYLR | 1.57
79 | IYPVWTYSYLVLLFPVFLDTDYLR | 2.38
80 | IYPVWTYSYLVLLFPVFLYTDYLR | 3.37
81 | IYPVWTYSYLVLLFPVFLHTDYLR | 2.48
82 | IYPVWTYSYLVLLFPVFLQTDYLR | 2.78
83 | IYPVWTYSYLVLLFPVFLWTDYLR | 3.92
84 | IYPVWTYSYLVLLFPVFLLTDYLR | 3.29
85 | IYPVWTYSYLVLLFPVFLNTDYLR | 3.19
86 | IYPVWTYSYLVLLFPVFLPTDYLR | 4.21
87 | IYPVWTYSYLVLLFPVFLMTDYLR | 2.59
88 | IYPVWTYSYLVLLFPVFLGTDYLR | 2.6
89 | IYPVWTYSYLVLLFPVFLFTDYLR | 3.11
90 | IYPVWTYSYLVLLFPVFLSTDYLR | 2.5
91 | IYPVWTYSYLVLLFPVFLVTDYLR | 3.34
92 | IYPVWTYSYLVLLFPVFLKTDYLR | 1.69
93 | IYPVWTYSYLVLLFPVFLITDYLR | 2.47
94 | IYPVWTYSYLVLLFPVFLATAYLR | 3.19

— the supplement of paper PMC10567573
